Assay [1] addresses T1, Bcl-XL (UniProt Q07817-1 1-209).
T1 construct: also called anti-apoptotic member of the Bcl-2 protein family
Kind of assay: fluorescence polarisation competition; tracer Bak BH3 carboxyfluorescein 15 nM, Bcl-XL 100 nM. As to the method: (§1) The following reagents are mixed together in the order stated: [0089] a) competitor peptide at a final concentration of from 1 nM to 100 μM; [0090] b) fluorescent peptide ligand (Bak BH3 carboxyfluorescein) at a final concentration of 15 nM; [0091] c) anti-apoptotic member of the Bcl-2 protein family at a final concentration of 100 nM for Bcl-XL and of 1 μM for Bcl-2 and Bcl-W.
(§2) The mixture is then incubated for 30 minutes at ambient temperature and the fluorescence polarisation is determined on a Fusion apparatus (Packard) (excitation at 485 nm and reading at 530 nm). The values are given in mP (unit of fluorescence polarisation).
On the technique in general: Polarisation of emitted light reports the rotation of a fluorescent probe.

The target in assay [2] is T2, Bcl-2 (UniProt P10415-1 1-211, limits assumed).
T2 construct: also called anti-apoptotic member of the Bcl-2 protein family
T2 sequence (P10415 1-211 limits assumed): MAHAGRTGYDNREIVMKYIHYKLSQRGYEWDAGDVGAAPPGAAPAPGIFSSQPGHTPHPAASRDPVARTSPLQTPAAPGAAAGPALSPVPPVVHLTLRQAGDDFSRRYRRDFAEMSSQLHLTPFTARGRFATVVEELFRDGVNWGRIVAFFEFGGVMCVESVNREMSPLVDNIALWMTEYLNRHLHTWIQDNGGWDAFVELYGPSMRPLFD
Kind of assay: fluorescence polarisation competition; tracer Bak BH3 carboxyfluorescein 15 nM, Bcl-2 1 µM. As to the method: as §1, §2

The target in assay [3] is T3, Bcl-W (UniProt Q92843-1 1-172, limits assumed).
T3 construct: also called anti-apoptotic member of the Bcl-2 protein family
T3 sequence (looked up): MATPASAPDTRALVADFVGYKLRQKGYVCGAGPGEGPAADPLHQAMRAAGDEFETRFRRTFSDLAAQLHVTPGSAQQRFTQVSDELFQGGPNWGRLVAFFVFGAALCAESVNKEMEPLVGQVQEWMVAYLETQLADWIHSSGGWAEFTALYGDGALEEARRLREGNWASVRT
Kind of assay: fluorescence polarisation competition; tracer Bak BH3 carboxyfluorescein 15 nM, Bcl-W 1 µM. As to the method:
as §1, §2

This is an account of results in patent publication US20090099072A1 (LES LABORATOIRES SERVIER, published 2009).

T1 sequence (Q07817 1-209): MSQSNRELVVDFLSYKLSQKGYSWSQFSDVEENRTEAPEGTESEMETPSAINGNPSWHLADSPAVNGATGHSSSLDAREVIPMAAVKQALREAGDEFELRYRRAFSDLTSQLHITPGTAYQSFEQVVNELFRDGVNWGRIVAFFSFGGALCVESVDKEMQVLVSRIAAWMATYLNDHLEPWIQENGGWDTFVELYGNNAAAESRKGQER

B1: Beclin peptide, motif GTMENLSRRLKVTGDLFDIMSGQTDV of the Beclin protein (peptide)
peptide: GTMENLSRRLKVTGDLFDIMSGQTDV
The term Ki denotes a measure of affinity in units of concentration, obtained from inhibition or displacement. A high value points to lower affinity. Regarding B1, the results for the Ki in assay [1], in assay [2] and in assay [3] were 1.15 µM, 1.8 µM and 7.4 µM, respectively.
